Here are results for three molecules from US20220168440A1, “ANTIBODY-PYRROLOBENZODIAZEPINE DEPRIVATIVE CONJUGATE” (DAIICHI SANKYO COMPANY, LIMITED, priority 2019, published 2022).

Substitutions are numbered along the chain they refer to.

For one test, the system named is KPL-4 cells. Put plainly: Cell growth inhibition of drug 1 (4), CellTiter-Glo. The class given is cell-based. To be noted: KPL4, 144 h; human breast cancer cell line; 6 days culture; read-out: anticellular effect IC50 on KPL-4 cells. As for the experimental part: KPL-4 cells (Dr. Junichi Kurebayashi, Kawasaki Medical School, British Journal of Cancer, (1999) 79(5/6). 707-717), a human breast cancer cell line, were prepared with RPMI1640 Medium (Thermo Fisher Scientific; hereinafter, referred to as RPMI medium) containing 10% fetal bovine serum (Hyclone) to reach 6.25×10^3 cells/mL, and 80 μL portions of them were added to a 96-well cell culture microplate. After addition of the cells, the cells were cultured at 37° C. and 5% CO2 overnight.
On the next day, 20 μL portions of drug 1 diluted with RPMI medium to 100 nM, 20 nM, 4 nM, 0.8 nM, 0.16 nM, 0.032 nM, 6.4 pM, 1.3 pM, and 0.26 pM were added to the microplate. To each well without any antibody-drug conjugate, 20 μL of RPMI medium was added. KPL-4 was cultured at 37° C. and 5% CO2 for 6 days. After culturing, the microplate was taken out of the incubator, and left to stand at room temperature for 30 minutes. CellTiter-Glo Luminescent Cell Viability Assay (Promega Corporation) in an amount equivalent to that of the culture solution was added, and stirred using a plate mixer. The microplate was left to stand at room temperature for 10 minutes, and thereafter the amount of emission was measured by using a plate reader (PerkinElmer). Cell survival rates were calculated by using the same formula as in Example 37.

Test [1] deals with T1, human CLDN6 (human, UniProt P56747 1-220).
T1 construct: Four-transmembrane protein, NP_067018; It was also expressed on CHO-K1 cells by cDNA transfection; In the immunoprecipitation it was the endogenous protein from NTERA-2 cell lysate; also called hCLDN6; claudin-6
T1 sequence: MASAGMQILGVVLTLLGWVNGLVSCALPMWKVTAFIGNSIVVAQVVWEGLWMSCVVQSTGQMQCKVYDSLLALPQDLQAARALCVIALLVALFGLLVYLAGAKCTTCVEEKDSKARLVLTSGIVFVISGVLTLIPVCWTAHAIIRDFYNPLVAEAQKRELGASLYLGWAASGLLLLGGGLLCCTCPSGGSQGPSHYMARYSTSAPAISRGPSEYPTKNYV
The test is described as follows: immunoprecipitation from NTERA-2 cell lysate, SDS-PAGE, mass spectrometry of the 18 kDa band.

The next test deals with T2, human CLDN9 (human, UniProt O95484 1-217).
T2 construct: NP_066192; It was expressed on 293T cells transiently transfected with human CLDN9/pCMV6-Entry (OriGene); also called claudin-9
T2 sequence: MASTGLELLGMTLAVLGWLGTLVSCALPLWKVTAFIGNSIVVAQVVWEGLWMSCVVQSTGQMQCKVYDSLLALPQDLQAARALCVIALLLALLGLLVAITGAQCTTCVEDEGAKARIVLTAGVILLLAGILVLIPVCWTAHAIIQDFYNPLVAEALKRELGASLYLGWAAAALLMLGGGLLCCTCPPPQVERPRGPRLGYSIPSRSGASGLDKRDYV
The test is described as follows: flow cytometry on transiently transfected 293T cells. As for the experimental part: (§1) Binding activity of the mouse anti-CLDN6 antibodies produced in Example 6 to human CLDN6 and its family molecules, CLDN3, CLDN4, and CLDN9, was evaluated by using a flow cytometry method. Human CLDN3/pCMV6-Entry, human CLDN4/pCMV6-Entry, human CLDN6/pCMV-Entry, human CLDN9/pCMV6-Entry, or pCMV6-Entry purchased from OriGene Technologies, Inc. was transiently transferred into 293T cells (Thermo Fisher Scientific, HCL4517) by using Lipofectamine 2000 (Thermo Fisher Scientific), and the cells were cultured under conditions of 37° C. and 5% CO₂ overnight, and then a cell suspension was prepared. […] The cells were washed twice with Dulbecco's phosphate buffered saline (Sigma-Aldrich Co. LLC) containing 5% fetal bovine serum (Hyclone) (hereinafter, referred to as 5% FBS-containing PBS), and FLUORESCEIN-CONJUGATED GOAT IGG FRACTION TO MOUSE IGG (WHOLE MOLECULE) (MP Biomedicals, Inc.) 500-fold diluted with 5% FBS-containing PBS was then added thereto, and the cells were suspended and left to stand at 4° C. for 1 hour. After washing twice with 5% FBS-containing PBS, detection was carried out by using a flow cytometer (FC500; Beckman Coulter, Inc.). Data analysis was carried out by using FlowJo (Tree Star, Inc.). […] In each graph in FIG. 40, the ordinate represents FITC fluorescence intensity indicating the amount of the binding antibody and the abscissa represents antibody concentrations.
(§2) The binding activity of the humanized anti-CLDN6 antibody produced in Example 10 to human CLDN6 and its family molecules, CLDN3, CLDN4, and CLDN9, was evaluated by using a flow cytometry method.

The next test concerns the target T3, human CLDN4 (human, UniProt O14493 1-209).
T3 construct: whole, on cells
T3 sequence (looked up): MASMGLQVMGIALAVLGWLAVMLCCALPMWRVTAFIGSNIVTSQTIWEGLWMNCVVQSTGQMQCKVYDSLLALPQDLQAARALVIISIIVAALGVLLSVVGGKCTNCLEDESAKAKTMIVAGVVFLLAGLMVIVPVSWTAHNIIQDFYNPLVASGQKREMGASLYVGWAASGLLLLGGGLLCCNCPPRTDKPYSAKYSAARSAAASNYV
Described as above. As for the experimental part: as §1, §2

For another test, the target named is T4, human CLDN3 (human, UniProt O15551 1-220).
T4 construct: whole, on cells
T4 sequence (looked up): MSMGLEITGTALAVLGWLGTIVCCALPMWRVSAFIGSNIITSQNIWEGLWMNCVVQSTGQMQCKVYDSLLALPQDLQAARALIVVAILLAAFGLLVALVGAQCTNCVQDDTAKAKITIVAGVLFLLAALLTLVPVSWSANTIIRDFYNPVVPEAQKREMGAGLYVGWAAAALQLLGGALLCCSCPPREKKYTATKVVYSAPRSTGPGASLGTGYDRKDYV
Described as above. As for the experimental part:
as §1, §2

The target in test [2] is T1, human CLDN6. Put plainly: FACS on CHO-K1 cells transfected with human claudin-6 cDNA.

`COc1ccc(C2=CN3C(=O)c4cc(OC)c(OCCCCCOc5cc6c(cc5OC)C(=O)N5CC7(CC7)C[C@H]5C=N6)cc4NC[C@@H]3C2)cc1` [Drug 1, (11a′S)-7′-Methoxy-8′-[(5-{[(11aS)-7-methoxy-2-(4-methoxyphenyl)-5-oxo-5,10,11,11a-tetrahydro-1H-pyrrolo[2,1-c][1,4]benzodiazepin-8-yl]oxy}pentyl)oxy]-1′,11a′-dihydro-5′H-spiro[cyclopropane-1,2′-pyrrolo[2,1-c][1,4]benzodiazepine]-5′-one]: in the test with KPL-4 cells, the IC50 was 0.01 to 0.02 nM.

B1: mouse anti-CLDN6 antibody B1 (antibody, V domains shown)
VH: EVQLQQSGPELVKPGASVKISCKTSGYTFTEYTMHWVQQSHGKSLEWIGGVNPNSGDTSYNQKFKGKATLTVDKSSSTAYMELRSLTSEDSAVYYCARPGGYDVGYYAMDYWGQGTSVTVSS
VL: DIQMTQTASSLSASLGDRVTISCRASQDINNYLNWYQQKPDGTVKLLIYFTSRLHSGVPSRFSGSGSGTHYSLTITNLEQEDIATYFCQQGYPLPWTFGGGTKLEIK
notes: Mouse monoclonal antibody purified from hybridoma 218B1 culture supernatant; a mouse IgG1 antibody was used as the control; also called B1 antibody; 218B1 antibody
Take B1: the binding result is recorded as “binds” in the test with human CLDN6 [1], “binds” with human CLDN9, “no binding (tested: 30 µg/mL (highest concentration tested))” with human CLDN4 and “no binding (tested: 30 µg/mL (highest concentration tested))” with human CLDN3.

B2: mouse anti-CLDN6 antibody C7 (antibody, V domains shown)
VH: B1 VH
VL: B1 VL with F50S, N77H
notes: Mouse monoclonal antibody purified from hybridoma 218C7 culture supernatant; a mouse IgG1 antibody was used as the control; also called C7 antibody; 218C7 antibody
Consider B2, for which the binding result with human CLDN6 [2] was “binds”; in the test with human CLDN9 it was “binds”; with human CLDN4 it was “no binding (tested: 30 µg/mL (highest concentration tested))”; with human CLDN3, “no binding (tested: 30 µg/mL (highest concentration tested))”.
